Assay results from patent publication US20230080842A1 (WUHAN YZY BIOPHARMA, published 2023).

T1: Human TIGIT (human, UniProt Q495A1 22-141)
T1 construct: also called TIGIT antigen; not shown: His tag
T1 sequence: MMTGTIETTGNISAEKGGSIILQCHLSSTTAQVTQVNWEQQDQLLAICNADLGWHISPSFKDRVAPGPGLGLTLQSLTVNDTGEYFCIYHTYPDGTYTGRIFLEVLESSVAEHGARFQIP

T2: Human VEGFA (human, UniProt P15692 207-395)
T2 construct: also called VEGF antigen; not shown: His tag
T2 sequence: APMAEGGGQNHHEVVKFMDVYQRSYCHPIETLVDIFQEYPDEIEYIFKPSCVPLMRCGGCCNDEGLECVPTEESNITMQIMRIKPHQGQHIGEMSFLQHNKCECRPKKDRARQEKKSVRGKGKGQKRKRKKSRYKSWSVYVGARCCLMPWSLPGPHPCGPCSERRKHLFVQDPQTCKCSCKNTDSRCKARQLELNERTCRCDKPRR


Columns and labels:
Test in all cases: ELISA, plate coated with His-tagged antigen
Human TGF-β1 = molecular target: T3, Human TGF-β1 (human, UniProt P01137 279-390)
T3 construct: also called TGF-01; TGF-β1 antigen; not shown: His tag
T3 sequence (P01137 279-390 limits assumed): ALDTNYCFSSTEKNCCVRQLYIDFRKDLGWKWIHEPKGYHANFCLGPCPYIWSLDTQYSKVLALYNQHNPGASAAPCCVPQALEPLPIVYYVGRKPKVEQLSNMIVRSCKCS

Human TIGIT = molecular target: T1, Human TIGIT
Experimental: (§1) 2) addition of antibody: according to the experimental design, operation was performed at room temperature, and the antibody was diluted in gradient with 1% BSA in PBS. […] The diluted antibody was added into wells of microtiter plate at 200 μl/well, incubated at room temperature for 2h, and then the supernatant was discarded;

Human VEGFA = molecular target: T2, Human VEGFA
Experimental: as §1

Human PD-1 = molecular target: T4, Human PD-1 (human, UniProt Q15116 25-170)
T4 construct: also called PD-1 antigen; not shown: His tag
T4 sequence (Q15116 25-170): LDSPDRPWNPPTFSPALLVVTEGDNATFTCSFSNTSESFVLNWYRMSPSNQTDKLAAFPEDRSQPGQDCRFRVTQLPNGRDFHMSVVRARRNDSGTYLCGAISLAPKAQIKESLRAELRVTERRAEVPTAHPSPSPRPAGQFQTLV

| Binder | EC50 (Human TGF-β1) | EC50 (Human TIGIT) | EC50 (Human VEGFA) | EC50 (Human PD-1) |
| --- | --- | --- | --- | --- |
| 3G12mAb (antibody, human IgG1, kappa, V domains shown, anti-TGF-β monoclonal antibody, human IgG1 constant domains, kappa) VH: QVQLVQSGAEVKKPGSSVKVSCKASGYTFSSNVISWVRQAPGQGLEWMGGVIPIVDIANYAQRFKGRVTITADESTSTTYMELSSLRSEDTAVYYCASTLGLVLDAMDYWGQGTLVTVSS VL: ETVLTQSPGTLSLSPGERATLSCRASQSLGSSYLAWYQQKPGQAPRLLIYGASSRAPGIPDRFSGSGSGTDFTLTISRLEPEDFAVYYCQQYADSPITFGQGTRLEIKR | 2.6 pM |  |  |  |
| 10A7mAb (antibody, human IgG1, kappa, V domains shown, anti-TIGIT monoclonal antibody, human IgG1 constant domains, kappa) VH: EVQLVESGGGLTQPGKSLKLSCEASGFTFSSFTMHWVRQSPGKGLEWVAFIRSGSGIVFYADAVRGRFTISRDNAKNLLFLQMNDLKSEDTAMYYCARRPLGHNTFDSWGQGTLVTVSS VL: DIVMTQSPSSLAVSPGEKVTMTCKSSQSLYYSGVKENLLAWYQQKPGQSPKLLIYYASIRFTGVPDRFTGSGSGTDYTLTITSVQAEDMGQYFCQQGINNPLTFGDGTKLEIKR |  | 83.1 pM |  |  |
| Y206-B2 (bispecific antibody, human IgG1, kappa, structure 2 IgG(H)-ScFv, B series; IgG G631 (anti-VEGF), scFv 5C4 (anti-PD-1)) light: not shown heavy: EVQLVESGGGLVQPGGSLRLSCAASGFTISDYWIHWVRQAPGKGLEWVAGITPAGGYTYYADSVKGRFTISADTSKNTAYLQMNSLRAEDTAVYYCARFVFFLPYAMDYWGQGTLVTVSSASTKGPSVFPLAPSSKSTSGGTAALGCLVKDYFPEPVTVSWNSGALTSGVHTFPAVLQSSGLYSLSSVVTVPSSSLGTQTYICNVNHKPSNTKVDKKVEPKSCDKTHTCPPCPAPPVAGPSVFLFPPKPKDTLMISRTPEVTCVVVDVSHEAPEVQFNWYVDGVEVHNAKTKPREEQFNSTFRVVSVLTVVHQDWLNGKEYKCKVSNKGLPAPIEKTISKTKGQPREPQVYTLPPSRDELTKNQVSLTCLVKGFYPSDIAVEWESNGQPENNYKTTPPVLDSDGSFFLYSKLTVDKSRWQQGNVFSCSVMHEALHNHYTQKSLSLSPGAGGGGSGGGGSGGGGSGEIVLTQSPATLSLSPGERATLSCRASQSVSSYLAWYQQKPGQAPRLLIYDASNRATGIPARFSGSGSGTDFTLTISSLEPEDFAVYYCQQSSNWPRTFGQGTKVEIKGGGGSGGGGSGGGGSQVQLVESGGGVVQPGRSLRLDCKASGITFSNSGMHWVRQAPGKGLEWVAVIWYDGSKRYYADSVKGRFTISRDNSKNTLFLQMNSLRAEDTAVYYCATNDDYWGQGTLVTVSS |  |  | 59.6 pM | 312 pM |
| Y206-A2 (bispecific antibody, human IgG1, kappa, structure 2 IgG(H)-ScFv, A series; IgG G631 (anti-VEGF), scFv 5C4 (anti-PD-1)) light: not shown heavy: EVQLVESGGGLVQPGGSLRLSCAASGFTISDYWIHWVRQAPGKGLEWVAGITPAGGYTYYADSVKGRFTISADTSKNTAYLQMNSLRAEDTAVYYCARFVFFLPYAMDYWGQGTLVTVSSASTKGPSVFPLAPSSKSTSGGTAALGCLVKDYFPEPVTVSWNSGALTSGVHTFPAVLQSSGLYSLSSVVTVPSSSLGTQTYICNVNHKPSNTKVDKKVEPKSCDKTHTCPPCPAPPVAGPSVFLFPPKPKDTLMISRTPEVTCVVVDVSHEAPEVQFNWYVDGVEVHNAKTKPREEQFNSTFRVVSVLTVVHQDWLNGKEYKCKVSNKGLPAPIEKTISKTKGQPREPQVYTLPPSRDELTKNQVSLTCLVKGFYPSDIAVEWESNGQPENNYKTTPPVLDSDGSFFLYSKLTVDKSRWQQGNVFSCSVMHEALHNHYTQKSLSLSPGAGGGGSGGGGSGGGGSGQVQLVESGGGVVQPGRSLRLDCKASGITFSNSGMHWVRQAPGKGLEWVAVIWYDGSKRYYADSVKGRFTISRDNSKNTLFLQMNSLRAEDTAVYYCATNDDYWGQGTLVTVSSGGGGSGGGGSGGGGSEIVLTQSPATLSLSPGERATLSCRASQSVSSYLAWYQQKPGQAPRLLIYDASNRATGIPARFSGSGSGTDFTLTISSLEPEDFAVYYCQQSSNWPRTFGQGTKVEIK |  |  | 63 pM | 450 pM |
